Tests used:
[1] = system: mouse hepatocytes in primary culture; test: Apoptosis induced by actinomycin D and Jo2 antibody in mouse hepatocytes in primary culture; assay type: cell-based
Excerpt: In order to determine whether the in vivo antiapoptotic effects of AR could be mediated by direct action of AR on liver parenchymal cells, the inventors used mouse hepatocytes in primary culture. It has been reported that hepatocytes exposed to Jo-2 antibodies undergo apoptosis effectively in presence of actinomycin D [(5), (6), (33) Ni, R., Tomita, Y., Matsuda, K., Ichiara, A., Ishimura, K., Ogasawara, J., Nagata, S. 1994. Fas-mediated apoptosis in primary cultured mouse hepatocytes. Exp. Cell Res. 215: 332-337]. Hepatocytes were pretreated with different concentrations of AR during […] before addition of actinomycin D and Jo2 antibody. Measurements of apoptosis and related molecular events, were made 18 h later. […] Likewise, they found antiapoptotic protein Bcl-xL to be induced by treatment with AR in mouse hepatocytes treated with Jo2 (FIG. 4B). In order to identify the AR antiapoptotic signaling mechanisms, PI-3K/Akt and ERK1/2 pathways were studied, as they are general mediators of cell survival [(4), (6)]. […] A key signaling molecule implicated in protection against liver damage induced by Fas is STAT3 [(34) Shen, Y., Devgan, G., Darnell, J. E., Bromberg, J. F. 2001. Constitutively activated Stat3 protects fibroblasts from serum withdrawal and UV-induced apoptosis and antagonizes the proapoptotic effects of activated Statl. Proc. Natl. Acad. Sci. USA. 98: 1543-1548. (35) Haga, S., Terui, K., Zhang, H. Q., Enosawa, S., Ogawa, W., Inoue, H., Okuyama, T., Takeda, K., Akira, S., Ogino, T., et al. 2003. Stat3 protects against Fas-induced liver injury by redox-dependent and -independent mechanisms. J. Clin. Invest. 112: 989-998].
(§1) Hepatocytes were isolated from male Wistar rats (150 g) and C57/BL6 mice (20 g) by perfusion with collagenase (Gibco-BRL, Paisley, UK) as described elsewhere [(18), (20)]. Cells (5×10^5 cells per well) were plated onto 6-well plates coated with collagen (type I collagen, Collaborative Biomedical, Bedford, Mass., USA). Cultures were maintained in MEM medium supplemented with 10% fetal calf serum (FCS), non-essential amino acids, glutamine 2 mM and antibiotics (all supplied by Gibco-BRL). After 2 h of incubation, the medium was removed and cells were again cultured in the same medium with 5% FCS. Where applicable, hepatocytes were treated with IL-1β or TNFα from Roche (Mannheim, Germany), HGF or forskolin from Calbiochem (San Diego, Calif., USA), IL6 from RD Systems (Wiesbaden-Nordenstadt, Germany), or PGE2 from Alexis QBiogene (Carlsbad, Calif., USA).
Apoptosis was induced in cultured mouse hepatocytes by treatment with 0.5 μg/ml of Jo2 antibody and 0.05 μg/ml of actinomycin D as described elsewhere (5). Where applicable, the hepatocytes were treated with AR 6 h before the addition of Jo2 antibody and actinomycin D. Apoptosis was estimated by determining soluble histone-DNA complexes using the Cell Death Detection Assay (Roche). ELISA tests for determining cell death were carried out following the manufacturer's instructions. The specific enrichment of mono- and oligonucleosomes released in the cytoplasm (enrichment factor, EF) was calculated as the ratio between the absorbance values of the samples corresponding to treated cells and control cells. […]
Caspase-3 activity in mouse hepatocytes and liver tissue lysates was assessed using the Caspase-3/CPP32 colorimetric assay kit (BioVision, Palo Alto, Calif., USA). […]

[2] = system: cultured rat hepatocytes; test: EGF-R and proliferation signaling pathways (Western blot of phosphorylation) in cultured rat hepatocytes; assay type: cell-based
Protocol: as §1
Homogenates from liver samples and isolated hepatocytes were subjected to Western blot analysis as described elsewhere [(19, (20)]. Antibodies used were: affinity purified and biotinylated polyclonal antibody specifically targeted to murine AR (BAF989)(RD Systems); specific antibodies for the p17 subunit of active caspase-3 (9664S), phosphorylated Akt (Ser473) (9271S) and phosphorylated STAT3 (Tyr^705) (9131S) (Cell Signaling, Beverly, Mass., USA); ERK1/2 (06-182), phosphorylated EGF-R (Tyr^1173)(05-483) and STAT3 (06-596)(Upstate Biotechnology, Charlottesville, Va., USA). All other antibodies were from Santa Cruz Biotechnology (Santa Cruz, Calif., USA): BclxL (sc8392), Bcl2 (sc7382), EGF-R (sc-03), phosphorylated ERK1/2 (Tyr^204) (sc7383), Akt (sc5298), JNK (sc571), and phosphorylated JNK (Thr^183/Tyr^185) (sc6254).

[3] = rat hepatocytes, different times after addition of AR

B1: amphiregulin (protein)
chain: SVRVEQVVKPPQNKTESENTSDKPKRKKKGGKNGKNRRNRKKKNPCNAEFQNFCIHGECKYIEHLEAVTCKCQQEYFGERCGEKSMKTHSMIDSSLSK
notes: polypeptide growth factor belonging to the EGF family, ligand of EGF receptor; human recombinant AR (Sigma) used
B1 was tested. Which “antiapoptotic protein Bcl-xL (Western blot)” value ([1]; AR 20 nM, mouse hepatocytes treated with Jo2) did it give?
Its value is “induced”.

What about the “proteolysis and activation of caspase-3 induced by Jo2 antibody” value ([1]; AR 20 nM, mouse hepatocytes treated with actinomycin D and Jo2) of the same molecule?
Its value is “significantly inhibited”.

And the “apoptosis (enrichment factor of mono- and oligonucleosomes)” value ([1]; increasing concentrations of AR before actinomycin D and Jo2, measured 18 h later)?
The value was “protected from apoptosis by AR in a dose-dependent manner”.

And the “phosphorylation of EGF-R on tyrosine residues” value ([2]; isolated rat hepatocytes treated with AR)?
The value was “rapid and transient phosphorylation”.

And the JNK phosphorylation [2, 3]?
The JNK phosphorylation was “observed JNK phosphorylation”.

And the “phosphorylation of Akt” value [2, 3]?
Its value is “rapidly induces phosphorylation”.

And the “phosphorylation of ERK1/2” value [2, 3]?
Its value is “rapidly induces phosphorylation”.

Source: patent US20080064629A1, “Amphiregulin as a Protective Agent in Acute Hepatic Injury” (priority 2004, published 2008)
